Results published in the RNAGym collection of RNA variant scans (doi:10.1073/pnas.2313332121).

B1: TPR t1 (parent)
chain: GACCAAUCUGCCCUCAGAGCUCGAGAACAUCUUCGGAUGCAGAGGAGGCAGGCUUCGGUGGCGCGAUAGCGCCAACGUCCUCAACCUCCAAUGCAUCCCACCACAUGAUGAUGCCUGAAGAGCCUUGGUUUUUUG

Variants of: B1
Experiment: polymerase ribozyme fitness, log enrichment relative to wild type (log ratio); higher = more active; in vitro selection for triplet polymerase activity
Outline: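 Mutant libraries were PCR-built and transcribed for each subunit of a heterodimeric triplet polymerase ribozyme and selected for one round in triplicate at −7 °C, frozen, before gel excision of extended constructs and streptavidin-bead capture. Input and output libraries were Illumina-sequenced, keeping genotypes with ≥10 input reads and ≥1 read per output. Fitness is a logarithmic ratio of genotype to wild-type enrichment, in base 2, using inverse-variance-weighted replicate averages.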

Variant | polymerase ribozyme fitness (log ratio)
C8G U33G C72G C80U A103U G110C A121C U129C | -7.86
A50G C101U | -0.187
A27G C34A | -4.06
U21G G45U C101A | -3.2
A37U G113U G120A | -2.83
G69U U81G A103U | -6.76
G60A C115A G120U | -0.811
C80U C89G | -1.42
U38G G45U G47A C73U | -5.77
A37U C62G | -3.59
A108U U112A | -4.85
C13G A29C U54A A105C U106A | -3.03
U21C A29U C53G G61A C89U | -3.59
G10U G52U G61U G127A | -2.92
G19U C56U | -2.37
G39A G69C U112A | -1.42
U9C G60A C80U C89U | -1.82
C11U C20A G61U U133G | -2.19
C22A G60U | -4.21
A5G G44A G71U A83C C86U | -1.87
C72G G120U | 0.278
G52C U67A C70A G117C | -6.05
C20A C28A G45U A84U C104A G107U C124U | -5.96
G60A G71U | -4.5

Variant | polymerase ribozyme fitness (log ratio)
C49A C62U C85U C124G | 1.34
A16G G61A A74C U78G U112A | -4.17
C12A C13G G45C G63A A119U C124A U132A | 0.867
U9G C12G C53A C99U C102U | -5.32
C8G A27U G36A G42U C76A U96A U109A U116G | -6.96
G10C A24U C53A G63C G117C G128A | -5.7
G60U C101U G120A | 0.583
C8G C40U G60C | -0.367
G23A A43C A84G U87C G117U | -6.59
U33A A119G G120A | -3.37
C79G G110C | -6.49
A6G U21C C114A | -0.942
C56U C72A G120A | -0.183
C20A C64G U92C A121C | -6.25
U7C C8G G17U C40A C89G A91C U126G | -4.01
C40A G71A U125A | -2.51
G60A U81G A91G U116C | -7.03
C76G G122A | -1.36
C53U C72G C79A | -1.72
C73A U92C | -0.541
G48A C79A C97U | -2.68
U54C C64U G77U G113C U132A G135U | -3.36
U7G G63C A91U | -2.27
C3U A66U | -1.8

Variant | polymerase ribozyme fitness (log ratio)
G110C U112G | -4.99
C70U C80A A90U C123A | -6.41
G63C G93A G122A | -1.99
U9A G36A A119G | 0.68
A6U A18U C76U | -2.81
A29G G120A | -1.03
C13A A27U C101U | -4.94
C8U C13U G39A C80U C102A | -2.98
G44A G69A C94U | -4.26
A103G C124U | -3.1
A50G C56A | -0.266
C22A C73U A83G C115A | -4.8
G63C A111C A121C | -0.162
U33C U38A C49G A103C G113U G117A | -6.59
G17A U132A | -2.35
U21G G39C A41G C115A | -2
G57U C62A U125A | -4.41
U106G U130G | -1.21
C15U C72U U78A C85G C98A C104G C123U G128C | -6.7
G25A G71U | -6.24
C13G G60A | -1.21
A16U A50G G60U C97G U125A | -7.95
C8G U14C U32C G48A G52U A95U G110A | -4.18
A29C G44C C53U C85A C124G | -4.76

Variant | polymerase ribozyme fitness (log ratio)
U9G C13A C28U G47U C86G | -1.92
A6G C72U C97U | -1.35
C8A C34U | -4.29
A18U C70G | -6.16
G48A G57U A95C U112A C114A | -3.34
C49A G113C | -2.05
G19C A37U C62G C124U | -3.51
U54A C72G | -0.955
C13U A66U U116C | -0.492
G10C A16C C53U G117U | -4.5
C28G C53G U59A C73A C89A U109G A111U G120A | -6.66
C12G C34A A41C G71C C79A | -6.92
U9C A27U C73A C99A | -7.21
C3U A43G U55G A111G U126A | -4.64
G60U G61A U78G A84U C86A | -3.37
C89U U129G | -1.72
A18C C53G C76U | -3.42
U9A G48U A50U G60A C86G | -1.49
C8G G48A U96G U129A | -0.823
C40U C62A | -1.61
G48A U59A C79U U125G U130G | -1.48
G113A C124U | -0.971
C8U G117C | -3.02
G48A C56U U59C C86A C94A A111C | -5.39

Variant | polymerase ribozyme fitness (log ratio)
G42U C49A G69U | 0.552
G61A C72G | 0.08
G57U C64U U78G C88A C98U U131C | -2.15
G61U G120U | 1.51
G63A G117C | -3.7
A27G G110A | -1.89
G63A C82U C94U A95C C115U U132C | -2.7
G39A C86G | -1.11
U78C G117U | -2.53
C49G G60U C73U G128U | -3.07
C12A U38C G44A C56G G93A C104G G110U | -7.49
C56A C114U | -2.03
U7G G45C C88A C115A | 2.03
G10C G69U C79G C80U | -2.66
A26U A37G | -2.5
C53G C56A C86U U96G G117U | -3.87
C12A C28U C40U A41U | -4
G47A C101U | -1.23
A37U A74U A121C | 1.55
C31U C49U C76G U81G U96A C104U A108U C124G U130C | -5.23
C49A A91G G93U G117U G135A | -6.28
A2G C85U A95G | -2.08
C28A C124A U125C G127U | -3.12
U81A C89A | -2.06

Variant | polymerase ribozyme fitness (log ratio)
A29U U78A | -1.8
A50U G128A | -3.35
C88A C98A | -4.39
G60C U112G | -0.433
A2G G45A G63U U112A | -0.348
C28G G93U | -3.89
G10C U109A | -6.66
C88A C101G U116C | -2.59
U9G U54G U81A U125A G128U | -3.65
U9G G63U | -0.815
G42C G57U U126G | -3.49
G63A C89A U131G | -3.23
C85A U106A U125A | -3.11
G60A C73G A108U | -5.92
G107C | -5.46
C53U U109A | -5.04
A5C C8G C11A A37U C123U | 0.423
U96A C123A | -1.45
G57A G113C U133A | -3.86
U112C C124A G128A | 0.254
A50C U87G C98U | -0.87
C72A U81C | -0.634
A6C C76U C101G G122A C124U U129A | -2.42
C64A C123G | -3.71

Variant | polymerase ribozyme fitness (log ratio)
C20A G42C | -4.12
C15A G57U | -2.02
A5G C13G G51A U112C | -1.39
G71U U129G | -0.793
U14A U78C | -2.86
G48C G93C | -0.578
G45U A46C | -2.05
A37C C49A C76G G117A C123G U125A | -1.24
G23A U38A G58C A121C C124A | -6.22
C72A U96G U132A | -0.0408
A6U C13A U21C G69A C82A | -2.61
G47U C88A | -6.05
G36C G45C A111C G122A | -2.97
U54C U59C C94U A111G G128A U131A | -3.64
A6C G58C G60U A95C | -1.05
A6U C20A G69U C85A | -4.42
C70G A100C | -4.69
C12G G19C G57A A119G U131A | -3.15
C70A C80G U87A C88U C94U C123G | -6.08
U38A G57A G63A | -4.08
C53A G57A G93C | -0.961
C13U G36C A74C | 0.0868
A5G C80A | -2.34
